Numbering of substitutions follows the chain as printed. Numbers in names are those of the source. Entries after “also recorded” stand apart in the source; their conditions may differ. Peptide text beside a SMILES is read from it. * marks the point of attachment. Boc = CC(C)(C)OC(=O)*; CH2Cl = ClC*
Experiments:
[1] = target: T1, KSHV protease Pr(S204G), an autolytically stable variant (Human herpesvirus 8 strain GK18, UniProt Q2HRB6, S204G); test: Fluorometric enzyme assay, inhibition of KSHV protease; type: biochemical, Kaposi's Sarcoma Herpesvirus (KSHV); settings: 0.5 μM enzyme Pr(S204G), 300 μM inhibitor, 15 min pre-incubation, 20 μM fluorogenic substrate
T1 construct: S204G, untagged, recombinant in E. coli; source DNA from pulmonary KS tumor clone
T1 sequence (Q2HRB6 1-230 A226V): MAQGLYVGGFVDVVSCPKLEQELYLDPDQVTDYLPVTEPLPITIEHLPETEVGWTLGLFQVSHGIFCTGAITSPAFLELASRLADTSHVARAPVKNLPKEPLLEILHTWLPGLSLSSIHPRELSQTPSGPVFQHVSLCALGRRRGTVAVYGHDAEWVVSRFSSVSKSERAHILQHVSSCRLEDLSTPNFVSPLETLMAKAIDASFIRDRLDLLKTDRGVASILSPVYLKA

[2] = test system: KSHV-infected B-cell line, BCBL-1; test: Northern blot of KSHV AP and Pr/AP transcripts in BCBL-1 cells; type: cell-based; design: production of 0.95 kb AP transcript / production of 0.95 kb and 2.3 kb transcripts: dose or concentration left out as unconfirmed
From the text: The KSHV-infected B-cell line, BCBL-1, was employed for transcription of the KSHV Pr/AP and AP genes during lytic infection. This cell line harbors the viral genome in latent form, and treatment of these cells with TPA induces lytic replication (Renne, et al., 1996). Equivalent amounts of poly(A)-enriched RNA from uninduced or induced BCBL-1 cells in the presence or absence of phosphoroformic acid (PFA), an inhibitor of herpesviral DNA replication, were separated on a formaldehyde/agarose gel, transferred to a membrane, and hybridized to a probe derived from the 1.5 kb fragment containing the Pr/AP ORF of KSHV, as detailed in Example 6.
BCBL-1 cells (Renne, et al., 1996) were treated with phosphoroformic acid (PFA) at a concentration of 500 mM for at least 3 days prior to induction. Untreated and PFA treated cells were then split into identical flasks, at 3×10^5 cells/ml, and left unstimulated or induced with 12-O-tetradecanoyl phorbol-13-acetate (TPA) at a concentration of 20 ng/ml. After 48 hours, total RNA was harvested using RNAzol B as recommended by the manufacturer (Tel-Test, Friendwood, Tex.). To enrich the polyadenylated RNA fraction, 300 μg RNA samples, uninduced and induced with TPA, and with and without PFA treatment, were affinity purified using the Oligotex mRNA purification system (Qiagen, Chatsworth, Calif.). RNA was separated on a 1% agarose, 17% formaldehyde gel, transferred to Hybond-N nylon membrane in 10× SSC for 5 hours, and UV-crosslinked. The 1.5 kb insert from pBS1.5 was gel purified and labelled using the rediPrime Random Prime kit (Amersham Corporation, Arlington Heights, Ill.). Hybridization was performed as according to standard methods (Renne, et al., 1996), and the blot was exposed to Kodak XAR5 film for 8 hours.

[3] = target: fluorogenic peptide substrate DABCYL-Arg-Gly-Val-Val-Asn-Ala-Ser-Ser-Arg-Leu-Ala-EDANS (HCMV)
[4] = test system: HCMV M-site peptide substrate DABCYL-[…]-EDANS; test: Continuous fluorometric assay of cleavage of fluorogenic peptide substrate; type: biochemical; settings: for increase in fluorescence intensity (F/Fo) from peptide hydrolysis: 1.5 μM enzyme, 10 μM substrate, pH 5.5, 37° C., by five hours; for proteolytic activity relative to KSHV Pr: assayed according to the method of Example 5; for rate of hydrolysis of HCMV substrate relative to 1.5 μM wild-type KSHV Pr: 1 μM trypsin D102N or 1 nM trypsin vs 1.5 μM KSHV Pr, one-hour time course
Procedure: Such activities can be determined by comparing the activity of a KSHV PR, as defined herein, to that of the KSHV Pr having the sequence SEQ ID NO:7. For example, in experiments carried out in support of the present invention, recombinantly produced His6 -KSHV Pr and variant His6 -KSHV Pr(S114A) proteins were tested for ability to cleave a synthetic peptide substrate. The substrate, containing the HCMV M-site peptide sequence RGVVNASSRLA (SEQ ID NO:15) flanked by a fluorogenic donor-acceptor pair, allows for continuous monitoring of peptide hydrolysis due to fluorescence enhancement arising from donor-acceptor separation (Holskin, et al., 1995). This substrate contains an internal Arg residue, allowing for cleavage by trypsin, an extremely well-characterized serine protease.
Protease assays using the fluorogenic peptide substrate DABCYL-Arg-Gly-Val-Val-Asn-Ala-Ser-Ser-Arg-Leu-Ala-EDANS, where RGVVNASSRLA (SEQ ID NO:15) was obtained from BACHEM (King of Prussia, Pa.), were monitored optically by a Perkin-Elmer LS-5B luminescence spectrophotometer interfaced with a Macintosh SE-30 computer. DABCYL represents 4-(4'-Dimethylaminophenylazo)benzoic acid, and EDANS signifies (2'-aminoethylamino)-naphthalene-1-sulfonic acid. His6 -Pr and His6 -Pr(S114A) were diluted 10-fold from storage buffer into assay buffer (50 mM NaOAc (pH 5.5), 20% (v/v) glycerol, 0.1 mM EDTA, 0.1 mM DTT), equilibrated to 37° C. for 5 minutes in thermostatted quartz cuvettes, and manually mixed with a final substrate concentration of 10 μM. A pH 5.5 buffer was utilized due to slightly higher proteolytic activity than that observed in pH 7.5 Tris-based solutions. The final KSHV Pr concentrations were 1.5 μM. Time-evolved fluorescence enhancement was followed by exciting the samples at 355 nm and detecting emission at 495 nm. Trypsin and its D102N variant (Craik, et al., 1987) were diluted into the same assay buffer to final concentrations of 1 nM and 1 μM, respectively, and treated identically to the KSHV enzymes. The ratio of fluorescence at each time point (F) was then compared with the initial fluorescence output (FO) to generate plots of F/FO vs. time.

[5] = target: fluorogenic peptide substrate DABCYL-Arg-Gly-Val-Val-Asn-Ala-Ser-Ser-Arg-Leu-Ala-EDANS (HCMV); remark: listed apart in the source

CC(C)C[C@H](NC(=O)[C@H](Cc1ccc(O)cc1)NC(=O)OC(C)(C)C)C(=O)N[C@@H](CCCCN)C(=O)N[C@@H](C)C(=O)CCl [Boc-YLKA-COCH2 Cl] (Boc-YLKA-CH2Cl)
inhibition of protease activity [1]: Complete inhibition

O=C(O)P(=O)(O)O [PFA, phosphoroformic acid]
production of 0.95 kb and 2.3 kb transcripts ([2]; TPA-induced BCBL-1 cells): strongly inhibited | production of 0.95 kb AP transcript ([2]; uninduced BCBL-1 cells): strongly inhibited

CCCCCCCCCCCCCC(=O)O[C@@H]1[C@@H](C)[C@@]2(O)[C@@H](C=C(CO)C[C@]3(O)C(=O)C(C)=C[C@@H]23)[C@@H]2C(C)(C)[C@]12OC(C)=O [TPA, 12-O-tetradecanoyl phorbol-13-acetate]
production of 0.95 kb AP transcript upon lytic induction ([2]; BCBL-1 cells, TPA 20 ng/ml, 48 hours): strongly upregulated

KSHV His6-Pr (enzyme)
fluorescence enhancement (F/Fo) from hydrolysis of the fluorogenic peptide (fold increase in fluorescence intensity) [3]: 3

KSHV Pr: recombinant KSHV protease (SEQ ID NO:7) with amino-terminal His6 tag, expressed in E. coli
increase in fluorescence intensity (F/Fo) from peptide hydrolysis [4]: nearly three-fold increase

trypsin D102N (from UniProt P00763) (enzyme)
fluorescence enhancement (F/Fo) from hydrolysis of the fluorogenic peptide (fold faster than KSHV Pr) [5]: 2

B1: Pr(S204G): KSHV protease variant engineered to stabilize the enzyme against autoproteolysis, expressed without His6 tag (protein)
chain: T1 sequence (Q2HRB6 1-230 A226V) with S204G
proteolytic activity relative to KSHV Pr [4]: essentially the same activity as Pr; also recorded: substantially the same activity as Pr

B2: S114A variant: KSHV protease variant in which the active-site Ser-114 was converted to Ala (protein)
chain (part 1 of 2): MRGS
chain (part 2 of 2): GSAQGLYVGGFVDVVSCPKLEQELYLDPDQVTDYLPVTEPLPITIEHLPETEVGWTLGLFQVSHGIFCTGAITSPAFLELASRLADTSHVARAPVKNLPKEPLLEILHTWLPGLALSSIHPRELSQTPSGPVFQHVSLCALGRRRGTVAVYGHDAEWVVSRFSSVSKSERAHILQHVSSCRLEDLSTPNFVSPLETLMAKAIDASFIRDRLDLLKTDRGVASILSPVYLKA
increase in fluorescence intensity (F/Fo) from peptide hydrolysis [4]: minimal enhancement | proteolytic activity relative to KSHV Pr [4]: 1/10

B3: trypsin D102N: trypsin in which the active site Asp residue has been replaced with Asn (protein)
chain: IVGGYTCQENSVPYQVSLNSGYHFCGGSLINDQWVVSAAHCYKSRIQVRLGEHNINVLEGNEQFVNAAKIIKHPNFDRKTLNNDIMLIKLSSPVKLNARVATVALPSSCAPAGTQCLISGWGNTLSSGVNEPDLLQCLDAPLLPQADCEASYPGKITDNMVCVGFLEGGKDSCQGDSGGPVVCNGELQGIVSWGYGCALPDNPGVYTKVCNYVDWIQDTIAAN
rate of hydrolysis of HCMV substrate relative to 1.5 μM wild-type KSHV Pr [4]: 2 fold | catalytic efficiency relative to trypsin ([4]; under the conditions used herein): roughly 5000 fold

B4: trypsin: extremely well-characterized serine protease used for comparison (protein)
chain: B3 chain
rate of hydrolysis of HCMV substrate relative to 1.5 μM wild-type KSHV Pr [4]: substantially more active than the KSHV enzyme
